# Data: PMC9380774, “Mpe1 senses the binding of pre-mRNA and controls 3′ end processing by CPF” (Molecular Cell, 2022)
# B1: precleaved CYC1 (pcCYC1), 42 nt (ssRNA)
# RNA: UUUAUAGUUAUGUUAGUAUUAAGAACGUUAUUUAUAUUUCAA
# B2: precleaved CYC1 used for cryo-EM (IDT FAM or T7 version not stated) (ssRNA)
# RNA: UUUAUAGUUAUGUUAGUAUUAAGAACGUUAUUUAUAUUUCAA
# How the values were obtained:
# [1] = target: T1, polymerase module (Cft1-Pap1-Pfs2-Fip1-Yth1);Mpe1 (Saccharomyces cerevisiae;Saccharomyces …, UniProt Q06632;P29468;P42841;P45976;Q06102;P35728 1-1357;1-568;1-465;1-327;1-208;1-441, |); test: size exclusion chromatography; 5 uM polymerase module, 15 uM Mpe1, 10 uM RNA; comigration, later elution; EMSA: SEC 50 buffer (composition not given in material), 50 nM FAM-RNA, 10% native PAGE 1X TBE, room temperature; SEC: Superose 6 Increase 3.2/300 in SEC 50; settings: protein: recombinant;recombinant; tags: untagged (from polymerase module-Mpe1 purification); Pfs2-SII in some preparations;C-terminal SII; copies: 1;1;1;1;1;1; label: 5' 6-FAM; single strand
# [2] = target: polymerase module (Cft1-Pap1-Pfs2-Fip1-Yth1);Mpe1;yPIM peptide of Cft2 (Saccharomyces cerevisiae;Saccharomyces …, UniProt Q06632;P29468;P42841;P45976;Q06102;P35728;Q12102 …, ||); test: cryo-EM; Zn2+; 2.61 A; Cft2 yPIM peptide; EMSA: SEC 50 buffer (composition not given in material), 50 nM FAM-RNA, 10% native PAGE 1X TBE, room temperature; SEC: Superose 6 Increase 3.2/300 in SEC 50; settings: tags: untagged (from polymerase module-Mpe1 purification); Pfs2-SII in some preparations;C-terminal SII;; copies: 1;1;2;1;1;1;1; single strand; 4 nt modelled
# [3] = target: T1, polymerase module …; test: cryo-EM; Zn2+; 2.66 A; EMSA: SEC 50 buffer (composition not given in material), 50 nM FAM-RNA, 10% native PAGE 1X TBE, room temperature; SEC: Superose 6 Increase 3.2/300 in SEC 50; settings: protein: recombinant;recombinant; tags: untagged (from polymerase module-Mpe1 purification); Pfs2-SII in some preparations;C-terminal SII; copies: 1;1;1;1;1;1; single strand; 4 nt modelled
Binder,binding result [1],binding result [2],binding result [3]
B1,binds,,
B2,,binds,binds
